± gives the standard deviation of the averaged measurements.
Experiment: total protein half-life in vivo (active degradation + dilution); higher = more stable protein
[1] = E. coli NCM3722 delta-clpP delta-lon delta-hslV, growth: N-lim chemostat, doubling time 6 h
[2] = E. coli NCM3722 delta-hslV, growth: N-lim chemostat, doubling time 6 h
[3] = E. coli NCM3722 delta-lon, growth: N-lim chemostat, doubling time 6 h
[4] = E. coli NCM3722 delta-smpB, growth: N-lim chemostat, doubling time 6 h
[5] = wild type E. coli NCM3722, growth: C-lim chemostat, doubling time 3 h
[6] = wild type E. coli NCM3722, growth: N-lim chemostat, doubling time 6 h
[7] = wild type E. coli NCM3722, growth: N-lim chemostat, doubling time 12 h
[8] = wild type E. coli NCM3722, growth: P-lim chemostat, doubling time 6 h
[9] = wild type E. coli NCM3722, growth: P-lim chemostat, doubling time 12 h
[10] = E. coli NCM3722 delta-clpP, growth: N-lim chemostat, doubling time 6 h
[11] = wild type E. coli NCM3722, growth: C-lim chemostat, doubling time 6 h
[12] = wild type E. coli NCM3722, growth: C-lim chemostat, doubling time 12 h

MRTRHLVGLISGVLILSVLLPVGLSIWLAHQQVETSFIEELDTYSSRVAIRANKVATQGKDALQELERWQGAACSEAHLMEMRRVSYSYRYIQEVAYIDNNVPQCSSLEHESPPDTFPEPGKISKDGYRVWLTSHNDLGIIRYMVAMGTAHYVVMIDPASFIDVIPYSSWQIDAAIIGNAHNVVITSSDEIAQGIITRLQKTPGEHIENNGIIYDILPLPEMNISIITWASTKMLQKGWHRQVFIWLPLGLVIGLLAAMFVLRILRRIQSPHHRLQDAIENRDICVHYQPIVSLANGKIVGAEALARWPQTDGSWLSPDSFIPLAQQTGLSEPLTLLIIRSVFEDMGDWLRQHPQQHISINLESPVLTSEKIPQLLRDMINHYQVNPRQIALELTEREFADPKTSAPIISRYREAGHEIYLDDFGTGYSSLSYLQDLDVDILKIDKSFVDALEYKNVTPHIIEMAKTLKLKMVAEGIETSKQEEWLRQHGVHYGQGWLYSKALPKEDFLRWAEQHL
total protein half-life in vivo [1]: 6.97 ± 0.34 h
total protein half-life in vivo [2]: 5.64 ± 0.36 h
total protein half-life in vivo [3]: 5.57 ± 1.2 h
total protein half-life in vivo [4]: 6.12 ± 0.67 h
total protein half-life in vivo [5]: 3.21 ± 0.33 h
total protein half-life in vivo [6]: 6 ± 0.23 h
total protein half-life in vivo [7]: 12.2 ± 0.44 h
total protein half-life in vivo [8]: 6.32 ± 0.94 h
total protein half-life in vivo [9]: 12.6 ± 0.13 h

MLQLLLAVFIGGGTGSVARWLLSMRFNPLHQAIPLGTLTANLIGAFIIGIGFAWFSRMTNIDPVWKVLITTGFCGGLTTFSTFSAEVVFLLQEGRFGWALLNVFVNLLGSFAMTALAFWLFSASTAH
total protein half-life in vivo [2]: 5.83 h

MEIIMRNLCFLLTLVATLLLPGRLIAAALPQDEKLITGQLDNGLRYMIYPHAHPKDQVNLWLQIHTGSLQEEDNELGVAHFVEHMMFNGTKTWPGNKVIETFESMGLRFGRDVNAYTSYDETVYQVSLPTTQKQNLQQVMAIFSEWSNAATFEKLEVDAERGVITEEWRAHQDAKWRTSQARRPFLLANTRNLDREPIGLMDTVATVTPAQLRQFYQRWYQPNNMTFIVVGDIDSKEALALIKDNLSKLPANKAAENRVWPTKAENHLRFNIINDKENRVNGIALYYRLPMVQVNDEQSFIEQAEWSMLVQLFNQRLQERIQSGELKTISGGTARSVKIAPDYQSLFFRVNARDDNMQDAANALMAELATIDQHGFSAEELDDVKSTRLTWLKNAVDQQAERDLRMLTSRLASSSLNNTPFLSPEETYQLSKRLWQQITVQSLAEKWQQLRKNQDAFWEQMVNNEVAAKKALSPAAILALEKEYANKKLAAYVFPGRNLSLTVDADPQAEISSKETLAENLTSLTLSNGARVILAKSAGEEQKLQIIAVSNKGDLSFPAQQKSLIALANKAVSGSGVGELSSSSLKRWSAENSVTMSSKVSGMNTLLSVSARTNNPEPGFQLINQRITHSTINDNIWASLQNAQIQALKTLDQRPAEKFAQQMYETRYADDRTKLLQENQIAQFTAADALAADRQLFSSPADITFVIVGNVAEDKLVALITRYLGSIKHSDSPLAAGKPLTRATDNASVTVKEQNEPVAQVSQWKRYDSRTPVNLPTRMALDAFNVALAKDLRVNIREQASGAYSVSSRLSVDPQAKDISHLLAFTCQPERHDELLTLANEVMVKRLAKGISEQELNEYQQNVQRSLDIQQRSVQQLANTIVNSLIQYDDPAAWTEQEQLLKQMTVENVNTAVKQYLSHPVNTYTGVLLPK
total protein half-life in vivo [1]: 4.62 ± 0.69 h
total protein half-life in vivo [10]: 5.77 ± 0.74 h
total protein half-life in vivo [2]: 4.77 ± 1.3 h
total protein half-life in vivo [3]: 5.5 h
total protein half-life in vivo [4]: 4.55 ± 0.17 h
total protein half-life in vivo [5]: 2.905 ± 0.0097 h
total protein half-life in vivo [11]: 5.9 ± 0.39 h
total protein half-life in vivo [12]: 10.2 ± 0.87 h
total protein half-life in vivo [6]: 5.41 ± 0.45 h
total protein half-life in vivo [7]: 9.96 ± 0.61 h
total protein half-life in vivo [8]: 4.84 ± 0.2 h
total protein half-life in vivo [9]: 9.3 ± 0.6 h

MKRLIMATMVTAILASSTVWAADNAPVAAQQQTQQVQQTQKTAAAAERISEQGLYAMRDVQVARLALFHGDPEKAKELTNEASALLSDDSTEWAKFAKPGKKTNLNDDQYIVINASVGISESYVATPEKEAAIKIANEKMAKGDKKGAMEELRLAGVGVMENQYLMPLKQTRNALADAQKLLDKKQYYEANLALKGAEDGIIVDSEALFVN
total protein half-life in vivo [8]: 4.05 h

MPHSDELDAGNVLAVENLNIAFMQDQQKIAAVRNLSFSLQRGETLAIVGESGSGKSVTALALMRLLEQAGGLVQCDKMLLQRRSREVIELSEQNAAQMRHVRGADMAMIFQEPMTSLNPVFTVGEQIAESIRLHQNASREEAMVEAKRMLDQVRIPEAQTILSRYPHQLSGGMRQRVMIAMALSCRPAVLIADEPTTALDVTIQAQILQLIKVLQKEMSMGVIFITHDMGVVAEIADRVLVMYQGEAVETGTVEQIFHAPQHPYTRALLAAVPQLGAMKGLDYPRRFPLISLEHPAKQAPPIEQKTVVDGEPVLRVRNLVTRFPLRSGLLNRVTREVHAVEKVSFDLWPGETLSLVGESGSGKSTTGRALLRLVESQGGEIIFNGQRIDTLSPGKLQALRRDIQFIFQDPYASLDPRQTIGDSIIEPLRVHGLLPGKDAAARVAWLLERVGLLPEHAWRYPHEFSGGQRQRICIARALALNPKVIIADEAVSALDVSIRGQIINLLLDLQRDFGIAYLFISHDMAVVERISHRVAVMYLGQIVEIGPRRAVFENPQHPYTRKLLAAVPVAEPSRQRPQRVLLSDDLPSNIHLRGEEVAAVSLQCVGPGHYVAQPQSEYAFMRR
total protein half-life in vivo [1]: 5.29 ± 0.17 h
total protein half-life in vivo [10]: 3.52 ± 0.092 h
total protein half-life in vivo [2]: 4 ± 0.11 h
total protein half-life in vivo [3]: 4.37 ± 0.63 h
total protein half-life in vivo [4]: 3.88 ± 0.28 h
total protein half-life in vivo [5]: 2.37 ± 0.21 h
total protein half-life in vivo [11]: 3.9527 ± 0.00027 h
total protein half-life in vivo [12]: 6.1 ± 0.44 h
total protein half-life in vivo [6]: 3.6 ± 0.015 h
total protein half-life in vivo [7]: 7.19 ± 1.5 h
total protein half-life in vivo [8]: 4.059 ± 0.034 h
total protein half-life in vivo [9]: 6.87 ± 0.34 h

MSSKLVLVLNCGSSSLKFAIIDAVNGEEYLSGLAECFHLPEARIKWKMDGNKQEAALGAGAAHSEALNFIVNTILAQKPELSAQLTAIGHRIVHGGEKYTSSVVIDESVIQGIKDAASFAPLHNPAHLIGIEEALKSFPQLKDKNVAVFDTAFHQTMPEESYLYALPYNLYKEHGIRRYGAHGTSHFYVTQEAAKMLNKPVEELNIITCHLGNGGSVSAIRNGKCVDTSMGLTPLEGLVMGTRSGDIDPAIIFHLHDTLGMSVDAINKLLTKESGLLGLTEVTSDCRYVEDNYATKEDAKRAMDVYCHRLAKYIGAYTALMDGRLDAVVFTGGIGENAAMVRELSLGKLGVLGFEVDHERNLAARFGKSGFINKEGTRPAVVIPTNEELVIAQDASRLTA [P0A6A3]
total protein half-life in vivo [1]: 4.23 ± 0.13 h
total protein half-life in vivo [10]: 6.03 ± 2.6 h
total protein half-life in vivo [2]: 4.41 ± 0.054 h
total protein half-life in vivo [3]: 4.89 ± 0.78 h
total protein half-life in vivo [4]: 4.28 ± 0.21 h
total protein half-life in vivo [5]: 3.25 ± 0.17 h
total protein half-life in vivo [11]: 6.35 ± 0.1 h
total protein half-life in vivo [12]: 12.1 ± 0.56 h
total protein half-life in vivo [6]: 4.58 ± 0.21 h
total protein half-life in vivo [7]: 8.13 ± 0.2 h
total protein half-life in vivo [8]: 5.88 ± 0.24 h
total protein half-life in vivo [9]: 13.1 ± 1.2 h

MKITKITTYRLPPRWMFLKIETDEGVVGWGEPVIEGRARTVEAAVHELGDYLIGQDPSRINDLWQVMYRAGFYRGGPILMSAIAGIDQALWDIKGKVLNAPVWQLMGGLVRDKIKAYSWVGGDRPADVIDGIKTLREIGFDTFKLNGCEELGLIDNSRAVDAAVNTVAQIREAFGNQIEFGLDFHGRVSAPMAKVLIKELEPYRPLFIEEPVLAEQAEYYPKLAAQTHIPLAAGERMFSRFDFKRVLEAGGISILQPDLSHAGGITECYKIAGMAEAYDVTLAPHCPLGPIALAACLHIDFVSYNAVLQEQSMGIHYNKGAELLDFVKNKEDFSMVGGFFKPLTKPGLGVEIDEAKVIEFSKNAPDWRNPLWRHEDNSVAEW [Q6BF17]
total protein half-life in vivo [1]: 3.02 ± 0.17 h
total protein half-life in vivo [10]: 1.75 ± 0.17 h
total protein half-life in vivo [4]: 1.27 ± 0.18 h
total protein half-life in vivo [5]: 2.67 ± 0.21 h
total protein half-life in vivo [11]: 3.47 ± 0.4 h
total protein half-life in vivo [12]: 5.79 ± 0.88 h
total protein half-life in vivo [6]: 2.5 h
total protein half-life in vivo [7]: 1.84 h
total protein half-life in vivo [8]: 4.36 ± 0.18 h
total protein half-life in vivo [9]: 7.25 ± 0.96 h

MSVENIVNINESNLQQVLEQSMTTPVLFYFWSERSQHCLQLTPILESLAAQYNGQFILAKLDCDAEQMIAAQFGLRAIPTVYLFQNGQPVDGFQGPQPEEAIRALLDKVLPREEELKAQQAMQLMQESNYTDALPLLKDAWQLSNQNGEIGLLLAETLIALNRSEDAEAVLKTIPLQDQDTRYQGLVAQIELLKQAADTPEIQQLQQQVAENPEDAALATQLALQLHQVGRNEEALELLFGHLRKDLTAADGQTRKTFQEILAALGTGDALASKYRRQLYALLY
total protein half-life in vivo [1]: 4.51 ± 0.3 h
total protein half-life in vivo [10]: 4.61 ± 0.092 h
total protein half-life in vivo [2]: 5.26 ± 0.61 h
total protein half-life in vivo [3]: 6.044 ± 0.054 h
total protein half-life in vivo [4]: 4.75 ± 0.35 h
total protein half-life in vivo [5]: 3.1 ± 0.24 h
total protein half-life in vivo [11]: 6.038 ± 0.01 h
total protein half-life in vivo [12]: 11 ± 0.52 h
total protein half-life in vivo [6]: 5.25 ± 0.16 h
total protein half-life in vivo [7]: 8.64 ± 0.25 h
total protein half-life in vivo [8]: 5.31 ± 0.12 h
total protein half-life in vivo [9]: 11.9 ± 0.69 h

MKTGPLNESELEWLDDILTKYNTDHAILDVAELDGLLTAVLSSPQEIEPEQWLVAVWGGADYVPRWASEKEMTRFMNLAFQHMADTAERLNEFPEQFEPLFGLREVDGSELTIVEEWCFGYMRGVALSDWSTLPDSLKPALEAIALHGTEENFERVEKMSPEAFEESVDAIRLAALDLHAYWMAHPQEKAVQQPIKAEEKPGRNDPCPCGSGKKFKQCCLH [P0AD05]
total protein half-life in vivo [1]: 5.402 ± 0.046 h
total protein half-life in vivo [10]: 5.13 ± 1.1 h
total protein half-life in vivo [2]: 4.22 ± 0.47 h
total protein half-life in vivo [3]: 4.39 ± 0.54 h
total protein half-life in vivo [4]: 3.3 ± 0.53 h
total protein half-life in vivo [11]: 5.21 ± 1.5 h
total protein half-life in vivo [12]: 8.89 ± 1.9 h
total protein half-life in vivo [6]: 3.93 ± 0.25 h
total protein half-life in vivo [7]: 5.34 ± 1.1 h
total protein half-life in vivo [8]: 4.67 ± 0.34 h
total protein half-life in vivo [9]: 8.41 ± 0.26 h

MKDERRPICEVVAESIERLIIDGVLKVGQPLPSERRLCEKLGFSRSALREGLTVLRGRGIIETAQGRDSRVARLNRVQDTSPLIHLFSTQPRTLYDLLDVRALLEGESARLAATLGTQADFVVITRCYEKMLAASENNKEISLIEHAQLDHAFHLAICQASHNQVLVFTLQSLTDLMFNSVFASVNNLYHRPQQKKQIDRQHARIYNAVLQRLPHVAQRAARDHVRTVKKNLHDIELEGHHLIRSAVPLEMNLS [P0ACL5]
total protein half-life in vivo [1]: 4.767 ± 0.025 h
total protein half-life in vivo [10]: 1.35 h
total protein half-life in vivo [3]: 1.21 h
total protein half-life in vivo [4]: 1.37 ± 0.029 h
total protein half-life in vivo [5]: 1.3 ± 0.1 h
total protein half-life in vivo [11]: 2.15 ± 0.25 h
total protein half-life in vivo [12]: 2.35 ± 0.16 h
total protein half-life in vivo [6]: 1.21 ± 0.14 h
total protein half-life in vivo [7]: 1.68 ± 0.18 h
total protein half-life in vivo [8]: 1.56 ± 0.22 h
total protein half-life in vivo [9]: 2.65 ± 0.72 h

Source: the supplement of paper PMC11246515
